Experimental findings from patent US20250236683A1 (PHARMA FOODS INTERNATIONAL, published 2025) are described below.

This assay has as its target T1, human PAD2 protein (human, UniProt Q9Y2J8 1-665).
T1 construct: also called Peptidylarginine deiminase 2; Peptidyl arginine deiminase type-2
As to the kind of experiment: SPR (Biacore 8K), antibody captured on Protein A chip, human PAD2 as analyte, single-cycle, 1:1 model. As to the method:
To evaluate the binding affinity of each anti-PAD2 antibody for human PAD2 protein, the dissociation constant (KD) was measured using a surface plasmon resonance system Biacore 8K (Cytiva). Series S Sensor Chip Protein A (Cytiva) was used as the sensor chip. HBS-EP+ buffer was used as the running buffer. The test antibody was prepared at 0.8 μg/mL by using the running buffer to make a ligand solution. The ligand solution was added to the flow cell at a flow rate of 10 μL/min for 60 seconds, and the flow cell without the ligand solution was used as a reference cell. The running buffer was used to prepare human PAD2 protein from several hundred pM to several tens of nM to make each analyte solution. The running buffer was also used as a blank solution. The blank solution or analyte solution was added at a flow rate of 30 μL/min for 120 seconds by using the single-cycle method, and the dissociation time was set to 1200 seconds. The sensorgram of the reference cell was subtracted from the sensorgram of the flow cell with the ligand when the blank solution or analyte solution was added. In addition, the sensorgram when the blank solution was added was subtracted from the sensorgram when the analyte solution was added, and then used for analysis. Biacore™ Insight Evaluation Software (Cytiva) was used to calculate binding parameters while using the 1:1 binding model.
In general terms: In SPR one partner is held on a chip, and binding of the other changes the refractive index at the surface.

T1 sequence (Q9Y2J8 whole entry): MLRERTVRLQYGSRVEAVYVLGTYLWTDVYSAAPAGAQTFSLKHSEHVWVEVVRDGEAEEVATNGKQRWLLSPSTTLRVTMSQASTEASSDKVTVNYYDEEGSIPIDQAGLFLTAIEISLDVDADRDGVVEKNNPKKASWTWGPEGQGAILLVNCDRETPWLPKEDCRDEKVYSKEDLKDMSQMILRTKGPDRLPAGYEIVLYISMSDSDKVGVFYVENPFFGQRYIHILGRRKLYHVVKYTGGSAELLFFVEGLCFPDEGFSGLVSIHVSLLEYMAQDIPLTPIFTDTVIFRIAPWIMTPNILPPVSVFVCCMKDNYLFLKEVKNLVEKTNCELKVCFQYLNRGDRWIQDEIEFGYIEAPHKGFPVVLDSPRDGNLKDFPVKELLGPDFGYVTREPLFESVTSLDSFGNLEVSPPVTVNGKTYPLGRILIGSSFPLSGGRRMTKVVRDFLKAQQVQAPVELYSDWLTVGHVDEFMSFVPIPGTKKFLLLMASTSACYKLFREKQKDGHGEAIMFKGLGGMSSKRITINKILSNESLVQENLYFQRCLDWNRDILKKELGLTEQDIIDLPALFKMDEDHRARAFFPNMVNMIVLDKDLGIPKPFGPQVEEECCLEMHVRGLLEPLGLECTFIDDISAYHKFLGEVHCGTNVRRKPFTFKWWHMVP

B1: CK1-10 (antibody, human IgG1, lambda, V domains shown)
VH: AVTLDESGGGLQTPGRALSLVCKASGFTFSDYGMGWMRQAPGKGLEWVGAISNRGSHTYYGAAVKGRATISRDNGQSTVRLQLNNLRAEDTGTYYCAKDAGTCISSYGFSCVSAASIDAWGHGTEVIVSS
VL: ALTQPSSVSANLGGTVKITCSGGSGSYGGSYYYGWYQQKAPGSAPVTLIYDNTNRPSNIPSRFSGSKSGSTATLTITGVQADDEAVYFCGSIDSISDADIFGAGTTLTVLG
notes: Chicken/human chimeric IgG1 expressed in 293 cells; also called anti-PAD2 antibody
On to B1, for which the binding result is on record as “binds”.

B2: PK1-16 (antibody, human IgG1, lambda, V domains shown)
VH: AVTLDESGGGLQTPGGGLSLVCKASGFTFRSYAMYWVRQAPGKGLEWLAGISSSGRYTGYAPAVKGRATISRDNGQSTVRLQLSNLRAEDAGTYYCAKDVYDSWTYANRIDAWGHGTEVIVSS
VL: ALTQPSSVSANPGETVKITCSGGGRRGYYGWYQQKSPGSAPVTVIYNNDERPSNIPSRFSGFKSGSTATLTITGVQAEDEAVYYCGSGDTTTDSGIFGAGTTLTVLG
notes: as for B1
Regarding B2, the binding result is given as “binds”.
